Reference: paper PMC5817353, “Iron Sulfur and Molybdenum Cofactor Enzymes Regulate the Drosophila Life Cycle by Controlling Cell Metabolism” (Frontiers in Physiology, 2018)

Target: Drosophila Nfs1^Δ1–53/Isd11/IscU complex (Drosophila melanogaster, UniProt Q9VKD3 54-462; O46098 1-92; Q9VHK6 1-154)
Assay: cell-based or functional assay

Chain of Drosophila Nfs1^Δ1–53/Isd11/IscU complex (Q9VKD3 54-462, stated change not applied, chain 1 of 3): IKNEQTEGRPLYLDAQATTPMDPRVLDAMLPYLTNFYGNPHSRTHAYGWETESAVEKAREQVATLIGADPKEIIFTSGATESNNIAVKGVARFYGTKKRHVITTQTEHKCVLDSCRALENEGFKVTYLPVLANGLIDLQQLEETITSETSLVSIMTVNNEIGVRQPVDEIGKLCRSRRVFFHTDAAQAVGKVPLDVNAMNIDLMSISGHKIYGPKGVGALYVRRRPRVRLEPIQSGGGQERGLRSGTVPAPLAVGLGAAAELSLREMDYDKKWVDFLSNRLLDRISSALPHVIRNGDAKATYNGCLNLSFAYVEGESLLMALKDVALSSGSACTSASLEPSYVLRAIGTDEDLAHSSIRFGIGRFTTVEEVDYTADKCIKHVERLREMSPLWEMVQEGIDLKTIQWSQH
Chain of Drosophila Nfs1^Δ1–53/Isd11/IscU complex (O46098 whole entry, stated change not applied, chain 2 of 3): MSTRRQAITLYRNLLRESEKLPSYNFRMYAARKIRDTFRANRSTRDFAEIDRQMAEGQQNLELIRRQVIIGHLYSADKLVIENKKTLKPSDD
Chain of Drosophila Nfs1^Δ1–53/Isd11/IscU complex (Q9VHK6 whole entry, stated change not applied, chain 3 of 3): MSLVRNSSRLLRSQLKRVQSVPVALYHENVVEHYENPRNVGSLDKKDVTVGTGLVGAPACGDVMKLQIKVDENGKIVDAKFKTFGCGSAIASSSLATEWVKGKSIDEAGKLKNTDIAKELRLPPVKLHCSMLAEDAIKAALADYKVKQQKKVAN

B1: human frataxin (FXN) (natural protein, UniProt Q16595 42-210, looked up)
chain: LRTDIDATCTPRRASSNQRGLNQIWNVKKQSVYLMNLRKSGTLGHPGSLDETTYERLAEETLDSLAEFFEDLADKPYTFEDYDVSFGSGVLTVKLGGDLGTYVINKQTPNKQIWLSSPSSGPKRYDWTGKNWVYSHDGVSLHELLAAELTKALKTKLDLSSLAYSGKDA
L-cysteine desulfurase activity (total sulfide produced, methylene blue) of the IscU/Nfs1^Δ1–53/Isd11 complex on addition of human frataxin, 1:3 [Nfs1]:[FXN], anaerobic, 10 min at 23°C: 6 fold
